The values that follow come from US20220041725A1 (MacroGenics, published 2022).

In this assay the target is T1, HER-2 (UniProt P04626 23-652, limits assumed).
T1 construct: also called HER2/neu; erbB-2
The assay is described as follows: SPR (BIAcore 1000), HER-2 amine-coupled on chip, antibody injected at 6.25-200 nM.

Regarding ch4D5 (antibody), the koff turned out to be 6.3e-06 s⁻¹ and the kon was 110000 M⁻¹ s⁻¹.

B1: ch4D5-wild-type Fc (antibody, human IgG1, kappa, V domains shown)
VH: QVQLQQSGPELVKPGASLKLSCTASGFNIKDTYIHWVKQRPEQGLEWIGRIYPTNGYTRYDPKFQDKATITADTSSNTAYLQVSRLTSEDTAVYYCSRWGGDGFYAMDYWGQGASVTVSS
VL: DIVMTQSHKFMSTSVGDRVSITCKASQDVNTAVAWYQQKPGHSPKLLIYSASFRYTGVPDRFTGSRSGTDFTFTISSVQAEDLAVYYCQQHYTTPPTFGGGTKVEIKR
notes: Chimeric IgG with wild-type human IgG1 Fc; also called ch4D5-FcWT (wild-type Fc); Chimeric 4D5 Antibody having a wild-type Fc
In turn, B1 had a koff of around 3.2e-07 s⁻¹ and a kon of 170000 M⁻¹ s⁻¹.

The term koff denotes the first-order rate constant of dissociation. By kon is commonly meant the second-order rate constant of association. Lower therefore signals slow association.
